# B1: E-cadherin-Fc fusion protein (Fc fusion, not shown: a dimerising Fc or GST)
# chain: DWVIPPISCPENEKGEFPKNLVQIKSNRDKETKVFYSITGQGADKPPVGVFIIERETGWLKVTQPLDREAIAKYILYSHAVSSNGEAVEDPMEIVITVTDQNDNRPEFTQPVFEGFVAEGAVPGTSVMKVSATDADDDVNTYNAAIAYTIVSQDPELPHKNMFTVNRDTGVISVLTSGLDRESYPTYTLVVQAADLQGEGLSTTAKAVITVKDINDNAPVFNPSTYQGQVPENEVNARIATLKVTDDDAPNTPAWKAVYTVVNDPDQQFVVVTDPTTNDGILKTAKGLDFEAKQQYILHVRVENEEPFEGSLVPSTATVTVDVVDVNEAPIFMPAERRVEVPEDFGVGQEITSYTAREPDTFMDQKITYRIWRDTANWLEINPETGAIFTRAEMDREDAEHVKNSTYVALIIATDDGSPIATGTGTLLLVLLDVNDNAPIPEPRNMQFCQRNPQPHIITILDPDLPPNTSPFTAELTHGASVNWTIEYNDAAQESLILQPRKDLEIGEYKIHLKLADNQNKDQVTTLDVHVCDCEGTVNNCMKAGIVAAGLQV
# Target: E-cadherin on human iPS cells (TkDN4-M) (human) (UniProt P12830)
# Sequence (P12830 155-882 limits assumed): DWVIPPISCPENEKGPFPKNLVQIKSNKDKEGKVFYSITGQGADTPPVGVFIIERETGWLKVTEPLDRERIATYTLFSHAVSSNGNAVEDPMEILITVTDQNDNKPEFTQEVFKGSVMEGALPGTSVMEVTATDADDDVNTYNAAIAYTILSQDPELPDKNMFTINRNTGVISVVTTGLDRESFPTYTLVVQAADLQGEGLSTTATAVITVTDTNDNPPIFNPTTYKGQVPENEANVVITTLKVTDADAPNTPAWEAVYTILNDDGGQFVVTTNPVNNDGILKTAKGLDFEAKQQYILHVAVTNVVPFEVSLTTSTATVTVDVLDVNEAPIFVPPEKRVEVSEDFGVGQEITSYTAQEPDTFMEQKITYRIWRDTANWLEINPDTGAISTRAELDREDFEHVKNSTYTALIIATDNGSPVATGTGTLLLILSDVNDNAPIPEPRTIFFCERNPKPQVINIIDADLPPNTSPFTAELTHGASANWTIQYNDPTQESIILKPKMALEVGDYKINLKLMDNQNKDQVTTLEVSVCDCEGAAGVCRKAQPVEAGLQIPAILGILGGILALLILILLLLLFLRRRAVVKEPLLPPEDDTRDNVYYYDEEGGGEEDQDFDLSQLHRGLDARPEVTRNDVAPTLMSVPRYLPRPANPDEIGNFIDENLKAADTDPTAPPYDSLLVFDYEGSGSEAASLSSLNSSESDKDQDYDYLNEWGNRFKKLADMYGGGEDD
# Assay: cell-based or functional assay
binder,measurement,value
B1,"diameter of hiPS cell aggregates on Day 5 of culture in Essential 8, E-cadherin-Fc 50 or 100 µg/ml for the first 48 hours",500 µm
same,"sizes of hiPS cell aggregates 48 hours after the E-cadherin-Fc treatment, 5 µg/ml (without E-cadherin-Fc: 1000 to 3000 µm)",300 to 700 µm
same,"sizes of hiPS cell aggregates 48 hours after the E-cadherin-Fc treatment, 10 µg/ml",200 to 400 µm
same,"sizes of hiPS cell aggregates 48 hours after the E-cadherin-Fc treatment, 20 µg/ml",100 to 500 µm
same,"sizes of hiPS cell aggregates 48 hours after the E-cadherin-Fc treatment, 50 µg/ml",100 to 300 µm
same,"sizes of hiPS cell aggregates 48 hours after the E-cadherin-Fc treatment, 100 µg/ml",150 to 700 µm

# From patent US20180023057A1
